“And” between values parts separate entries of the source, which are not always exact repeats. Equal entries are not always repeated. Where two headings read alike, the source gives them in different places.
What was measured:
HLA A2.1 molecule [1] = target: T1, HLA A2.1 molecule (Homo sapiens, UniProt P04439, D140Y/D185E/D98H/E176V/E277Q/G131W/G231S/I119V/I121R/I166T/I218V/L300P/L318F/N151K/N90K/P208A/P217A/Q86G/Q94H/R138H/R169H/T345S); format: binding; conditions: for RA, Native peptides: HIV 1 peptides
[2] = tested on: RMAS-HHD targets loaded with peptide; assay: Immunogenicity: CTL generation in HHD transgenic mice, 51Cr lysis of peptide-loaded targets; format: in vivo; conditions: for percentage of HHD mice in which a CTL response is induced: mice sensitized with the peptide; for immunogenicity (in words): HHD mice (also humans); for killing of RMAS-HHD cells loaded with natural peptide or its P1Y variant: CTLs induced in HHD mice sensitized with the natural peptide, FIG. 1
HLA A2.1 molecule [3] = target: T1, HLA A2.1 molecule; assay: Stability of the peptide/HLA A2.1 complex (DC50) on T2 cells, flow cytometry; format: binding
Experimental: For each incubation time, the cells are then labeled, as indicated above, with the BB7.2 antibody, and analyzed by flow cytometry in order to evaluate the amount of peptide/HLA A2.1 complex present at their surface. […] The DC50 (dissociation complex: DC) is defined as being the time required for the loss of 50% of the HLA A2.1/peptide complexes stabilized at t=0.

EL-4/HHD cells = assay: Antitumor protection after peptide vaccination, EL-4/HHD graft; conditions: for tumor size at D28: 10 HHD mice, two injections two weeks apart, EL-4/HHD graft; for mice still alive at D80: 4 of 10 mice; for day from which mortality is observed: days after implantation of tumor cells; for number of mice showing no tumors at D28: ten mice per group
EL-4/HHD/neu tumor cells = assay: Antitumor protection after peptide vaccination, EL-4/HHD/neu graft
[4] = native peptides, relative affinity vs reference peptide HIVpol 589, lower RA = stronger binding
[5] = HHD mice, 100 μg peptide s.c., responder: specific cytotoxicity >15% above unloaded targets
[6] = […], arrow in neighbouring cell gives direction
[7] = native peptides, time for loss of 50% of HLA A2.1/peptide complexes
[8] = native TERT peptides, reference peptide HIVpol 589

MLGTHTMEV [gp100 178]
RA (HLA A2.1 molecule [1]; [4]): 0.3 | Responders/total mice ([2]; mouse, in vivo, sc): 4/6

MLLAVLYCL [Tyrosinase 1, reference compound]
RA (HLA A2.1 molecule [1]; [4]): >60.0 | Responders/total mice [2, 5]: 4/23 | percentage of HHD mice in which a CTL response is induced [2]: 17%

NLQSLTNLL [HBV pol 985]
Responders/total mice [2, 5]: 0/6

PLEEELPRL [HBV pol 594]
DC50 Y1-DC50 WT (HLA A2.1 molecule [3]; [6]): >6 h | DC50 (HLA A2.1 molecule [3]; [7]): <2 h | RA (HLA A2.1 molecule [1]; [4]): 4.2 | Responders/total mice [2, 5]: 0/6

PLQPEQLQV [HER-2/neu 391]
DC50 Y1-DC50 WT (HLA A2.1 molecule [3]; [6]): >6 h | DC50 (HLA A2.1 molecule [3]; [7]): 2 h | RA (HLA A2.1 molecule [1]; [4]): >70.0 | immunogenicity (in words) [2]: nonimmunogenic | Responders/total mice ([2]; mouse, in vivo, sc): 0/6

PLTFGWCFKL [P10L]
RA, P1Y peptides (HLA A2.1 molecule [1]): 5 | RA, Native peptides (HLA A2.1 molecule [1]): >100

PLTSIISAV [HER-2/neu 650]
DC50 (HLA A2.1 molecule [3]): <2 h | DC50 Y1-DC50 WT (HLA A2.1 molecule [3]): >4 h | RA (HLA A2.1 molecule [1]): 1.4 | RA WT/RA Y1 (HLA A2.1 molecule [1]): 6.0 | immunogenicity (in words) [2]: nonimmunogenic | Responders/total mice ([2]; mouse, in vivo, sc): 0/6

PLVKLWYQL [P9L]
DC, P1Y peptides (HLA A2.1 molecule [3]): <2 h | RA, P1Y peptides (HLA A2.1 molecule [1]): 4.6 | RA, Native peptides (HLA A2.1 molecule [1]): >100

QLLRSFFHFL [mp 545]
DC50 (HLA A2.1 molecule [3]; native TERT peptides): >6 h | RA (HLA A2.1 molecule [1]; [8]): 1.6 | tumor size at D28 (EL-4/HHD cells): 489±209 mm^2

RLRDLLLIV [R9V]
RA, P1Y peptides (HLA A2.1 molecule [1]): 5 | RA, Native peptides (HLA A2.1 molecule [1]): >100

SLADTNSLAV [gp100 570, reference compound]
DC50 Y1-DC50 WT (HLA A2.1 molecule [3]; [6]): >2 h | DC50 (HLA A2.1 molecule [3]; [7]): 4 to 6 h | RA (HLA A2.1 molecule [1]; [4]): 1.0 | killing of RMAS-HHD cells loaded with natural peptide or its P1Y variant [2]: same efficacy | Responders/total mice ([2]; mouse, in vivo, sc): 6/9

SLFDFFHFL [mp 797]
DC50 (HLA A2.1 molecule [3]; native TERT peptides): >6 h | RA (HLA A2.1 molecule [1]; [8]): 1.5 | tumor size at D28 (EL-4/HHD cells): 653±148 mm^2

TDQVPFSV [gp100 209, reference compound]
DC50 Y1-DC50 WT (HLA A2.1 molecule [3]; [6]): 2 h | DC50 (HLA A2.1 molecule [3]; [7]): 4 h | Responders/total mice ([2]; mouse, in vivo, sc): 4/6

TLEEITGYL [HER-2/neu 402]
DC50 Y1-DC50 WT (HLA A2.1 molecule [3]; [6]): >2 h | DC50 (HLA A2.1 molecule [3]; [7]): <2 h | RA (HLA A2.1 molecule [1]; [4]): 19.0 | immunogenicity (in words) [2]: nonimmunogenic | Responders/total mice ([2]; mouse, in vivo, sc): 0/6

VIYQYMDDL [V9L]
DC, P1Y peptides (HLA A2.1 molecule [3]): <2 h | RA, P1Y peptides (HLA A2.1 molecule [1]): 8.6 | RA, Native peptides (HLA A2.1 molecule [1]): >100

VLDVGDAYFSV [V11V]
DC, P1Y peptides (HLA A2.1 molecule [3]): 3.5 h | DC, Native peptides (HLA A2.1 molecule [3]; HIV 1 peptides): 2 h | RA, P1Y peptides (HLA A2.1 molecule [1]): 2.5 | RA, Native peptides (HLA A2.1 molecule [1]): 4.5

VLVKSPNHV [HER-2/neu 851, reference compound]
DC50 Y1-DC50 WT (HLA A2.1 molecule [3]; [6]): 2 h | DC50 (HLA A2.1 molecule [3]; [7]): 4 h | RA (HLA A2.1 molecule [1]; [4]): 24.0 | Responders/total mice [2, 5]: 1/12 | percentage of HHD mice in which a CTL response is induced [2]: 8%

VLYRYGSFSV [gp100 476, reference compound]
DC50 Y1-DC50 WT (HLA A2.1 molecule [3]; [6]): 2 h | DC50 (HLA A2.1 molecule [3]; [7]): 6 h | RA (HLA A2.1 molecule [1]; [4]): 10.0 | killing of RMAS-HHD cells loaded with natural peptide or its P1Y variant [2]: same efficacy | Responders/total mice [2, 5]: 8/10

YLFFYRKSV [mhp 572Y1]
DC50 (HLA A2.1 molecule [3]; modified (P1Y) TERT peptides): 5 h | RA (HLA A2.1 molecule [1]): 2.2 | mice still alive at D80 (EL-4/HHD cells): 40% | tumor size at D28 (EL-4/HHD cells): 232±244 mm^2 | day from which mortality is observed (EL-4/HHD cells): 40 days | number of mice showing no tumors at D28 (EL-4/HHD cells): 4 mice

YLIHHNTHL [HER-2/neu 466Y1]
DC50 (HLA A2.1 molecule [3]): 6 h | RA (HLA A2.1 molecule [1]): 1.4

YLQVNSLQTV [mhp 988Y1]
DC50 (HLA A2.1 molecule [3]; modified (P1Y) TERT peptides): >6 h | RA (HLA A2.1 molecule [1]): 2.1 | mice still alive at D80 (EL-4/HHD cells): 40% | tumor size at D28 (EL-4/HHD cells): 190±207 mm^2 and 213±160 mm^2 | day from which mortality is observed (EL-4/HHD cells): 40 days | number of mice showing no tumors at D28 (EL-4/HHD cells): 4 mice

YLTSIISAV [HER-2/neu 650Y1]
DC50 (HLA A2.1 molecule [3]): 6 h | RA (HLA A2.1 molecule [1]): 0.2 | mice still alive at D70 (EL-4/HHD/neu tumor cells; 3 of 10 mice): 30% | tumor size at D28 (EL-4/HHD/neu tumor cells; 10 HHD mice, two injections two weeks apart, EL-4/HHD/neu graft): 100±99 mm^2 | number of mice showing no tumors at D28 (EL-4/HHD/neu tumor cells; ten mice per group): 4 mice

YLVPQQGFFC [HER-2/neu 1023, reference compound]
DC50 (HLA A2.1 molecule [3]; [7]): 4 h | RA (bound stated in text) (HLA A2.1 molecule [1]): > 5 | RA (HLA A2.1 molecule [1]; [4]): 19.6 | Responders/total mice ([2]; mouse, in vivo, sc): 5/10

gp100 177Y1: P1Y variant of gp100 177 (YMLGTHTMEV)
percentage of HHD mice in which a CTL response is induced [2]: 75%

gp100 457Y1: P1Y variant of gp100 457 (YLDGTATLRL)
percentage of HHD mice in which a CTL response is induced [2]: 75%

gp100 476Y1: P1Y variant of gp100 476 (YLYRYGSFSV)
percentage of HHD mice in which a CTL response is induced [2]: 100%

gp100 570Y1: P1Y variant of gp100 570 (YLADTNSLAV)
percentage of HHD mice in which a CTL response is induced [2]: 100%
